Data on 1 molecule can be found in patent publication US9744220B2, “Compositions and methods for treating inflammatory diseases” (priority 2013, dated 2017).

Series [1] in a line: Toxicity in RAG-2-/- deficient mice. It counts as in vivo. Conditions: highly susceptible to endotoxin shock.
For series [2], the system named is primary cardiomyocytes. Put plainly: sPDNF stimulation of primary cardiomyocytes, chemokine transcripts by qPCR. The class given is cell-based, mouse. Conditions: 3 hr, dose-dependent. On the procedure:
FIG. 7A is a graph depicting MCP-1 and FKN expression in cardiomyocytes of mice infected with T cruzi. FIG. 7B is a graph depicting MCP-1 and FKN expression in cardiac fibroblasts of mice infected with T cruzi. T cruzi infection: Primary cultures of mouse cardiomyocytes (FIG. 7A) and cardiac fibroblasts (FIG. 7B) were plated in 6-well plates, infected with T cruzi Tulahuen strain (MOI=10) for 3, 24, and 72 hr, and MCP-1 and FKN transcripts were quantified by qPCR. Chemokine gene expression was normalized to HPRT and fold change calculated relative to uninfected cells. Points represent mean±SD fold change expression of triplicate samples. The experiment was repeated, and similar results were obtained. FIG. 7C is a graph depicting MCP-1 and FKN expression in cardiomyocytes of mice injected with sPDNF. FIG. 7D is a graph depicting MCP-1 and FKN expression in cardiac fibroblasts of mice injected with sPDNF. sPDNF stimulation: Primary cardiomyocytes (FIG. 7C) and cardiac fibroblasts (FIG. 7D) were plated in 6-well plates, serum starved overnight, then stimulated with the indicated concentration of sPDNF (3 hr), and MCP-1 and FKN transcripts were quantified by qPCR. Chemokine gene expression was normalized to HPRT and fold change calculated relative to vehicle-treated cells; *P<0.05, **P<0.01, and ***P<0.005. […]
For orientation: Real-time PCR tracks product formation cycle by cycle.

Series [3] can be described thus: Limulus amebocyte assay. Conditions: sPDNF preparations. On the procedure:
To ensure that the response observed in wild type mice was not due to TLR activation, MCP-1 and FKN response to IV sPDNF was assessed in TLR-deficient MyD88^−/− mice (23).
PDNF was cloned from the T cruzi Silvio X-10/4 strain (GenBank accession number AJ002174). PDNF and a N-terminal short-form of PDNF (sPDNF) that contains Trk-binding sites, were expressed in BL21 (DE3) bacteria, and purified by Ni-affinity chromatography, as described previously (4, 12, 18, 60). Buffers were prepared in sterile endotoxin-free water, and sPDNF preparations screened with the Limulus amebocyte assay have undetectable levels of endotoxin. sPDNF migrates as a 68 kDa protein on a SDS-PAGE gel. PDNF protein was buffer exchanged into PBS (0.01 M phosphate buffered saline, pH 7.2), filter-sterilized (0.22 μm), and kept at 4° C. PDNF was quantified by scanning densitometry (Bio-Rad, GS-800) of SDS-PAGE gels stained with Coomassie brilliant blue.

The test system of series [4] is MCP-1 and FKN receptors CCR2 and CX3CR1. The series can be described thus: IV sPDNF into naïve mice, chemokine receptor transcripts by qPCR. The class given is in vivo. On the procedure: For the results depicted in FIGS. 12A and 12B, mice (3/group) were injected with various single doses of IV sPDNF, and sacrificed 3 hr post-injection. FIG. 12A is a graph showing the mRNA expression of MCP-1 receptor CCR2, as quantified by qPCR in the heart and liver. FIG. 12B is a graph showing the mRNA expression of FKN receptor CX3CR1, as quantified by qPCR in the heart and liver. […] For the results depicted in FIGS. 12C and 12D, mice (3/group) were injected with vehicle (Veh) or multiple doses of IV sPDNF (25 μg per injection) at 0, 3 and 24 hr, and sacrificed 24 hr after the last injection. FIG. 12C is a graph showing mRNA expression of CCR2, as quantified by qPCR in the liver, colon and heart (ventricles and atria). FIG. 12D is a graph showing mRNA expression of CX3CR1, as quantified by qPCR in the liver, colon and heart (ventricles and atria). Notice a statistically significant upregulation of MCP-1 and FKN receptors in the heart and liver 48-h after the start of three doses of IV sPDNF spaced within a 24 h span; *P<0.05, and ** P<0.01
One of the functions of MCP-1 and FKN is to attract cells expressing their receptors (CCR2 and CX3CR1, respectively) to tissue sites. […] Thus, sPDNF-induced MCP-1 and FKN promoted migration of cells bearing CCR2 and CX3CR1 receptors.
RNA was isolated from Trizol lysates of cell monolayers or liquid nitrogen snap frozen tissue samples dissociated by a Tissue-Tearor mechanical homogenizer (Biospec Products, Inc.). cDNA was synthesized using the Quantitect Reverse Transcription kit (Qiagen) according to manufacturer's instructions. Chemokine and chemokine receptor transcripts were amplified using specific primers and normalized to HPRT using SYBR Green (Qiagen), and, if needed, expressed relative to control-unstimulated cells. The following primers were used: […]
sPDNF was diluted in sterile endotoxin-free PBS (200 μl) and injected via the tail vein into 6-8 week old female C57BL/6 mice. Mice receiving single IV injections of 150 μg sPDNF per mouse were sacrificed at 3, 6, 9, and 12 hr post-injection, or various doses of sPDNF (100 ng-150 μg) and sacrificed 3 hr post-injection. Mice receiving multiple injections of sPDNF or PBS vehicle control (0, 3, and 24 hr, 100 μg per injection) were sacrificed 24 hr after the last injection (i.e., 48 hr after the first injection). Mice were perfused with PBS and organs harvested as described above.

Setting [5] is: IV at 0, 3 and 24 hr, measured 24 hr after the last injection.

B1: sPDNF: N-terminal short-form of T cruzi PDNF that contains Trk-binding sites, recombinant; amino acids 1-588 of SEQ ID NO: 2; JR-100 is the commercial name (protein, listed as Trypanosoma cruzi)
chain: MGKTVVVASRMFWLMFFVPLLLAICPSEPAYALAPGSSRVELFKRKNSTVPFEDKAGKVTERVVHSFRLPALVNVDGVMVAIADARYDTSNDNSLIDTVAKYSVDDGETWETQIAIKNSRVSSVSRVVDPTVIVKGNKLYVLVGSYYSSRSYWSSHGDARDWDILLAVGEVTKSTAGGKITASIKWGSPVSLKKFFPAEMEGMHTNQFLGGAGVAIVASNGNLVYPVQVTNKKKQVFSKIFYSEDDGKTWKFGKGRSDFGCSEPVALEWEGKLIINTRVDWKRRLVYESSDMEKPWVEAVGTVSRVWGPSPKSNQPGSQSSFTAVTIEGMRVMLFTHPLNFKGRWLRDRLNLWLTDNQRIYNVGQVSIGDENSAYSSVLYKDDKLYCLHEINTDEVYSLVFARLVGELRIIKSVLRSWKNWDSHLSSICTPADPAASSSESGCGPAVTTVGLVGFLSGNASQNVWEDAYRCVNASTANAERVRNGLKFAGVGGGALWPVSQQGQNQRYRFANHAFTLVASVTIHEAPRAASPLLGASLDSSGGKKLLGLSYDEKHQWQPIYGSTPVTPTGSWETGKRYHLVLTMANKI
Take B1: the toxicity entry in series [1] is on record as “non-toxic”. Moreover, in series [2], the FKN transcripts entry is listed as “increase” and the MCP-1 transcripts entry was “increase”. The levels of endotoxin entry in series [3] is on record as “did not have detectable levels”. In series [4] (setting [5]), the “CCR2 in the liver and heart (ventricle and atrium)” value is “significant increase”; the “CX3CR1 in the liver and heart (ventricle and atrium)” value is “significant increase”. Moreover, in series [4] (single IV dose (150 μg)), the “CCR2 transcripts in cardiac and hepatic tissues” value was “did not increase”; the “CX3CR1 transcripts in cardiac and hepatic tissues” value is recorded as “did not increase”.
